Laboratory results as given in PMC6633393 (Journal of cell science, 2019).

Molecular target: Histidine-tagged human TEAD4 (amino acids 217–434) (human, UniProt Q15561 217-434)
Assay: native gel or EMSA; TEAD4 incubated with increasing concentrations of VGLL3 peptide before labelled YAP was added; 10 min at room temperature; 10% native gel at 100 V; only labelled YAP is seen
Conditions: both partners purified

Histidine-tagged human TEAD4 (amino acids 217–434), sequence (Q15561 217-434): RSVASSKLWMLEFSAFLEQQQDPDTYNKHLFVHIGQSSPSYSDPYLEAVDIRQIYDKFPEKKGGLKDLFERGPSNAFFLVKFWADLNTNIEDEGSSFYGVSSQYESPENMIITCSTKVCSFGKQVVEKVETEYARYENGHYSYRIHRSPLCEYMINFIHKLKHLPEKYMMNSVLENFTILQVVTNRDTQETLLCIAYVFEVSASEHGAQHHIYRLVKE

binding result: binds
Binder: SRCVLFTYFQGDIGSVVDEHFSRALGQ (peptide, UniProt A8MV65 86-112, looked up) [Unlabelled human VGLL3 (amino acids 86–112) peptide]
